We go through 4 molecules from patent US10695406B2, “Modulation of cellular stress using a B-cell oxidative and/or endoplasmic reticulum stress inhibitor and a targeting agent” (THE UNIVERSITY OF QUEENSLAND, priority 2014, dated 2020).

Where only a bound is given, the exact number is not on record here.

One data set relates to Murine MIN6N8 cells. As to the kind of experiment: ERAI-sXBP1 reporter ER stress in MIN6N8 cells with 0.5 mM palmitate. The data set is classed as cell-based. As to conditions: for ER stress caused by the protein alone: 15.4 nM, no palmitate; for ER stress caused by the protein alone / protection from palmitate-induced ER stress: 24 hours; for protection from palmitate-induced ER stress: co-treated with 0.5 mM palmitate, increasing concentrations; for in vitro efficacy for suppression of ER and oxidative stress (conclusion): murine and human cells. As to the method:
(§1) Cell culture: Murine MIN6N8 cells were tested negative for mycoplasma. Cells were routinely cultured in phenol-red free DMEM (Life Technologies) containing 25 mM glucose (3.4 g/L sodium bicarbonate, 50 U/mL penicillin and streptomycin, 71.5 μM β-mercaptoethanol and 10% heat inactivated fetal bovine serum) and transferred to DMEM as above with 5.5 mM glucose 48 h prior to experimentation. Human LS174T cells were cultured in DMEM containing 10% heat-inactivated fetal bovine serum, 50 U mL^−1 penicillin and streptomycin.
ER Stress Measurement: MIN6N8 cells were transfected with the ERAI reporter plasmid (F-XBP1ΔDBD-venus, using Lipofectamine 2000 according to the manufacturer's instructions. For ERAI there was negligible fluorescence in the absence of ER stressors, but upon induction of ER stress, splicing of XBP1 mRNA by IRE1a results in the translation of Venus but not an active form of XBP1. Fluorescence was measured (excitation: 485 nm; emission: 520 nm) using a POLARstar Omega plate reader and cells were treated 48 h after transfection. […] After 24 h, ERAI-sXBP1 GFP reporter fluorescence was measured.

Data set [1] in a line: Clearance of IL-22 and IL-22 fusion proteins from serum. The data set is classed as in vivo, C57BL/6 mice. As to conditions: 256 ng/g human IL-22 or molar equivalents, i.p. As to the method: (§2) Targeting to IL-22 to pancreas: Non-obese male C57BL/6 at 6-8 weeks of age. Each IL-22-GLP-1R ligand fusion protein or hIL-22 was administered i.p. at 256 ng/g of IL-22 and the molar equivalents for the individual fusion proteins (n=3 per regimen). IL-22-ScaB1 was administered at […]. Control mice received a PBS control i.p. injection only.
Serum concentrations of IL-22 and the IL-22-GLP-1R ligand fusion proteins were determined using a human IL-22 double-determinant ELISA (Biolegend; 434505) against a standard curve for the individual fusion proteins.

Data set [2] has as its system mice with high fat diet induced obesity. As to the kind of experiment: Dose-finding efficacy study (IPGTT) in mice on a high fat diet for 27 weeks. The data set is classed as in vivo, C57BL/6 male mice. Here is the method: C57BL/6 male mice from 6-8 weeks of age were fed a high fat diet containing 46% of available energy as saturated fat, 34% carbohydrate, 20% protein (Speciality feeds, SF04-027) for 27 weeks and treated as follows:
IL-22-GLP-1R ligand fusion protein or IL-22 alone were administered twice weekly i.p. at the following doses: 1, 4, 16, 64 and 256 ng/g of IL-22 (0.12-15.4 nmoles/g) and the molar equivalents for IL-22-GLP-1 fusion proteins (n=3 per regimen, except for the lowest dose where n=2); control mice received PBS control only. A fasted Intraperitoneal glucose tolerance tests (IPGTT) was performed (2 g kg-i glucose) on day 14 when the experiment was terminated (tissues were not kept for analysis). Body weight was recorded on days 0, 5, 10 and 13.

A further data set has as its system Human LS174T cells. Description: Oxidative stress (nitrite, Griess assay) in LS174T cells with 0.5 mM palmitate. The data set is classed as cell-based. As to conditions: 2 h prior to 0.5 mM palmitate for 30 min. As to the method: as §1
The Griess Reagent Kit for Nitrite Determination was performed according to the manufacturer's instructions (Molecular Probes) to assess the intracellular levels of nitrite (the stable metabolite of nitric oxide) using lysates of β-cells prepared in RIPA buffer (150 mM NaCl, 1% NP40, 0.5% sodium deoxycholate, 0.1% SDS, 50 mM Tris, pH 7.5).
A general note: Griess reagent forms a coloured azo dye with nitrite.

Another data set deals with STAT3 phosphorylation. Description: pStat3 staining in pancreatic islets vs liver, intestine and skin. The data set is classed as in vivo, C57BL/6 mice. Conditions: for pStat3 ratio pancreatic islets vs intestine, fold change relative to human IL-22 / pStat3 ratio pancreatic islets vs liver, fold change relative to human IL-22 / pStat3 ratio pancreatic islets vs skin, fold change relative to human IL-22: molar equivalent of 256 ng/g IL-22, 30 min. As to the method: as §2
To assess in vivo activation of the IL-22 receptor signaling pathway, after 30 min the mice were sacrificed and the following tissues were snap frozen and sections were prepared for each mouse: pancreas, skin (ear, tail), colon (rolled), and liver. Sections were stained by immunofluorescence for phosphorylated STAT3 using the Phospho-Stat3 (Tyr705) (D3A7) antibody.

For human IL-22: recombinant human IL-22, in the data set on Murine MIN6N8 cells, the “ER stress caused by the protein alone” value was “did not cause ER stress”. The “fold more protein required for the same effect as recombinant mouse IL-22 in reducing ER stress” value in the data set with Murine MIN6N8 cells (murine MIN6N8 cells, 0.5 mM palmitate, 24 h) is on record as around 16 fold. Moreover, the “clearance / serum concentration over the first 2 hours” value in data set [1] is reported as “cleared slightly more slowly”. In addition, in data set [2] (days 0, 5, 10 and 13), the “body weight changes during treatment” value is given as “little change in body weight”. Besides, the “mean reduction in the increased AUC of the IPGTT of HFD vs normal chow fed control mice” value in data set [2] (doses >0.96 nmoles/g, two-week therapy) is listed as above 50%. Moreover, in data set [2] (two lowest doses), the “efficacy in IPGTT below 0.96 nmoles/g” value is “diminished substantially”.

B1: MPBS-52: IL-22-GLP-1R ligand fusion protein, sequence in FIG. 36, made by Novo Nordisk A/S (protein)
chain: DLSKQMEEEAVRLFIEWLKNGGPSSGAPPPSGGSSSGGGSSSGGGSSSGGGSSSGAPISSHCRLDKSNFQQPYITNRTFMLAKEASLADNNTDVRLIGEKLFHGVSMSERCYLMKQVLNFTLEEVLFPQSDRFQPYMQEVVPFLARLSNRLSTCHIEGDDLHIQRNVQKLKDTVKKLGESGEIKAIGELDLLFMSLRNACIGGSHHHHHH
modifications: MPBS-52 - fusion protein comrpsing a GLP-1 ligand and IL-22
With B1, in the data set with Murine MIN6N8 cells, the “ER stress caused by the protein alone” value is “did not cause ER stress”; the “protection from palmitate-induced ER stress” value is on record as “effectively suppressed ER stress”; the “in vitro efficacy for suppression of ER and oxidative stress (conclusion)” value (shortened to “in vitro efficacy for suppression”) is “have retained in vitro efficacy”. Moreover, in the data set with Human LS174T cells, the “protection from palmitate-induced oxidative stress (nitrite production)” value (shortened to “protection … (nitrite production)”) is recorded as “effectively suppressed oxidative stress with a similar efficacy to equivalent molar concentrations of human IL-22”. In addition, in data set [1], the “clearance / serum concentration over the first 2 hours” value is “lower and somewhat more extended/later peak concentration”. For the same molecule, in the data set on STAT3 phosphorylation, the “pStat3 ratio pancreatic islets vs intestine, fold change relative to human IL-22” value is given as 338 fold; the “pStat3 ratio pancreatic islets vs liver, fold change relative to human IL-22” value is listed as 396 fold; the “pStat3 ratio pancreatic islets vs skin, fold change relative to human IL-22” value was 4,840 fold.

B2: MPBS-50: IL-22-GLP-1R ligand fusion protein, sequence in FIG. 36, made by Novo Nordisk A/S (protein)
chain: EGTFTSDVSSYLEGQAAKEFIAWLVKGRHGEGTFTSDVSSYLEGQAAKEFIAWLVKGRAPISSHCRLDKSNFQQPYITNRTFMLAKEASLADNNTDVRLIGEKLFHGVSMSERCYLMKQVLNFTLEEVLFPQSDRFQPYMQEVVPFLARLSNRLSTCHIEGDDLHIQRNVQKLKDTVKKLGESGEIKAIGELDLLFMSLRNACIGGSHHHHHH
modifications: MPBS-50 - fusion protein comrpsing a GLP-1 ligand and IL-22
Turning to B2, in the data set with Murine MIN6N8 cells, the “ER stress caused by the protein alone” value is reported as “did not cause ER stress”; the “protection from palmitate-induced ER stress” value was “inhibited ER stress in a dose dependent manner at a similar efficacy to a molar equivalent concentration of human IL-22”; the “in vitro efficacy for suppression” value is “have retained in vitro efficacy”. The “protection … (nitrite production)” value with Human LS174T cells is “inhibited oxidative stress (nitrite production) but only toward the highest end of the concentration range used”. Moreover, the “clearance / serum concentration over the first 2 hours” value in data set [1] is “cleared with similar kinetics to recombinant human IL-22”. Moreover, in the data set with STAT3 phosphorylation, the “pStat3 ratio pancreatic islets vs intestine, fold change relative to human IL-22” value is on record as “not greater than for native human IL-22”; the “pStat3 ratio pancreatic islets vs liver, fold change relative to human IL-22” value is reported as “not greater than for native human IL-22”; the “pStat3 ratio pancreatic islets vs skin, fold change relative to human IL-22” value came out at 45 fold.

B3: MPBS-51: IL-22-GLP-1R ligand fusion protein, sequence in FIG. 36, made by Novo Nordisk A/S (protein)
chain: EGTFTSDVSSYLEGQAAKEFIAWLVKGRGGGSSSGGGSSSGGGSSSGGGSSSGAPISSHCRLDKSNFQQPYITNRTFMLAKEASLADNNTDVRLIGEKLFHGVSMSERCYLMKQVLNFTLEEVLFPQSDRFQPYMQEWPFLARLSNRLSTCHIEGDDLHIQRNVQKLKDTVKKLGESGEIKAIGELDLLFMSLRNACIGGSHHHHHH
modifications: MPBS-51 - fusion protein comrpsing a GLP-1 ligand and IL-22
Consider B3, for which, in the data set with Murine MIN6N8 cells, the “ER stress caused by the protein alone” value is listed as “did not cause ER stress”; the “protection from palmitate-induced ER stress” value is given as “did not effectively suppress ER stress at any of the concentrations tested”; the “in vitro efficacy for suppression” value is “appears inactive in-vitro”. For the same molecule, the “protection … (nitrite production)” value in the data set with Human LS174T cells is “did not effectively suppress oxidative stress at any of the concentrations tested”. In addition, the “clearance / serum concentration over the first 2 hours” value in data set [1] is “lower and somewhat more extended/later peak concentration”. The “STAT3 phosphorylation in tissues in vivo” value in the data set with STAT3 phosphorylation (30 min after administration) is “did induce STAT3 phosphorylation in the pancreas as well as liver and gut”. In the data set with STAT3 phosphorylation, the “pStat3 ratio pancreatic islets vs intestine, fold change relative to human IL-22” value is on record as “not greater than for native human IL-22”; the “pStat3 ratio pancreatic islets vs liver, fold change relative to human IL-22” value was “not greater than for native human IL-22”; the “pStat3 ratio pancreatic islets vs skin, fold change relative to human IL-22” value is 113 fold.
